Measured values: US20220168438A1 (Daiichi Sankyo, published 2022)

T1: human CLDN6 (human, UniProt P56747 1-220)
T1 construct: Four-transmembrane protein; It was expressed on 293T cells from human CLDN6/pCMV-Entry (OriGene) and on CHO-K1 cells by cDNA transfection; it was endogenous in the NTERA-2 lysate used for immunoprecipitation; also called claudin-6; human claudin-6
T1 sequence: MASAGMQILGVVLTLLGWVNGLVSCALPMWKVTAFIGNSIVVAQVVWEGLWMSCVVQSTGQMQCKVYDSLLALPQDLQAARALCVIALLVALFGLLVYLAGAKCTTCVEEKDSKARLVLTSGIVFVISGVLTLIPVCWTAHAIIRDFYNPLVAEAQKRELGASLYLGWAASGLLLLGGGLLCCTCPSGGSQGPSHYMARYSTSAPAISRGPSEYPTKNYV

T2: human CLDN9 (human, UniProt O95484 1-217)
T2 construct: Expressed on 293T cells from human CLDN9/pCMV6-Entry (OriGene); Transfection was confirmed with an anti-FLAG antibody
T2 sequence: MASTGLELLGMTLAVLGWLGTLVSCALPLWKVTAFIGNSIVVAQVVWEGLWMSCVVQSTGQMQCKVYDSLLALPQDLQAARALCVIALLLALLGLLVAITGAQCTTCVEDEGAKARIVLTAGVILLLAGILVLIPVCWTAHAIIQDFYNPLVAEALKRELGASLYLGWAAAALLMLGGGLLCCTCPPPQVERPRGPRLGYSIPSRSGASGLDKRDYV

T3: human CLDN3 (human, UniProt O15551 1-220)
T3 construct: whole, on cells
T3 sequence (looked up): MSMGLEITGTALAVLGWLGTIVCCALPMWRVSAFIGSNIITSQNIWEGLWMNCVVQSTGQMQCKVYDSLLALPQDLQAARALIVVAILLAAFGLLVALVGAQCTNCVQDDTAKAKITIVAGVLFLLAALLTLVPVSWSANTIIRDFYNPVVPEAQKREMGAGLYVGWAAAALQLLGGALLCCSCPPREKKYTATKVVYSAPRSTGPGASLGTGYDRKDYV

T4: human CLDN4 (human, UniProt O14493 1-209)
T4 construct: whole, on cells
T4 sequence (looked up): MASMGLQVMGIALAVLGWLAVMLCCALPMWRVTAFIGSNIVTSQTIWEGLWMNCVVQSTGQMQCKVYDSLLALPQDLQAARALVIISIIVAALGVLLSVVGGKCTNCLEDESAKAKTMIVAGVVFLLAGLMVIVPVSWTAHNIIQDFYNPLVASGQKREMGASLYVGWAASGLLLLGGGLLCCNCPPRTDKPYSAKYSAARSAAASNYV


What was measured:
human CLDN6 = biological target: T1, human CLDN6; experiment: flow cytometry on transiently transfected 293T cells, 0.8-100 nM
Experimental: (§1) The binding activity of the humanized anti-CLDN6 antibody produced in Example 10 to human CLDN6 and its family molecules, CLDN3, CLDN4, and CLDN9, was evaluated by using a flow cytometry method. Used were 293T cells transiently transfected in the same manner as in Example 7-1. To cells into which a human CLDN6 or human CLDN9 gene had been transferred, the humanized anti-CLDN6 antibody H1L1, H2L2, H1L3, H2L4, or H3L3, or a human IgG1 control antibody (Calbiochem) was added and suspended to a final concentration of 100 nM, 20 nM, 4 nM, or 0.8 nM, and the resultant was left to stand at 4° C. for 30 minutes. To cells into which a human CLDN3 or human CLDN4 gene, or an empty vector had been transferred, the humanized anti-CLDN6 antibody H1L1, H2L2, H1L3, H2L4, or H3L3 was added and suspended to a final concentration of 100 nM, and the resultant was left to stand at 4° C. for 30 minutes. The cells were washed with Dulbecco's phosphate buffered saline (Sigma-Aldrich Co. LLC) containing 5% fetal bovine serum (Hyclone) (hereinafter, referred to as 5% FBS-containing PBS), and FITC AffiniPureF (ab′)2 Fragment Goat Anti-Human IgG (H+L) (Jackson ImmunoResearch Laboratories Inc.) 150-fold diluted with 5% FBS-containing PBS was then added thereto, and the cells were suspended and left to stand at 4° C. for 30 minutes. After washing with 5% FBS-containing PBS, detection was carried out by using a flow cytometer (FC500; Beckman Coulter, Inc.). Data analysis was carried out by using FlowJo (Tree Star, Inc.), and mean fluorescence intensity (MFI) of FITC, which indicates the amount of the binding antibody, was calculated. […] In each graph in FIG. 13, the abscissa represents antibody concentrations and the ordinate represents MFI.

human CLDN9 = biological target: T2, human CLDN9; experiment: as above
Experimental: as §1

human CLDN3 = biological target: T3, human CLDN3; experiment: flow cytometry on transiently transfected 293T cells
Experimental: (§2) Binding activity of the mouse anti-CLDN6 antibodies produced in Example 6 to human CLDN6 and its family molecules, CLDN3, CLDN4, and CLDN9, was evaluated by using a flow cytometry method. Human CLDN3/pCMV6-Entry, human CLDN4/pCMV6-Entry, human CLDN6/pCMV-Entry, human CLDN9/pCMV6-Entry, or pCMV6-Entry purchased from OriGene Technologies, Inc. was transiently transferred into 293T cells (Thermo Fisher Scientific, HCL4517) by using Lipofectamine 2000 (Thermo Fisher Scientific), and the cells were cultured under conditions of 37° C. and 5% CO₂ overnight, and then a cell suspension was prepared. The transfected 293T cell suspension was centrifuged to remove the supernatant, and a mouse anti-CLDN6 antibody (clone number: B1 or C7) or a mouse IgG1 control antibody (R&D Systems, Inc.) was then added and suspended to a final concentration of 30 μg/mL, 10 μg/mL, 3.3 μg/mL, or 1.1 μg/mL, and the resultant was left to stand at 4° C. for 1 hour. The cells were washed twice with Dulbecco's phosphate buffered saline (Sigma-Aldrich Co. LLC) containing 5% fetal bovine serum (Hyclone) (hereinafter, referred to as 5% FBS-containing PBS), and FLUORESCEIN-CONJUGATED GOAT IGG FRACTION TO MOUSE IGG (WHOLE MOLECULE) (MP Biomedicals, Inc.) 500-fold diluted with 5% FBS-containing PBS was then added thereto, and the cells were suspended and left to stand at 4° C. for 1 hour. After washing twice with 5% FBS-containing PBS, detection was carried out by using a flow cytometer (FC500; Beckman Coulter, Inc.). Data analysis was carried out by using FlowJo (Tree Star, Inc.). To confirm each transfection, the cells were permeabilized with 0.25% Tween 20-containing PBS, and then a mouse anti-FLAG antibody (Sigma-Aldrich Co. LLC) was used. […] In each graph in FIG. 11, the ordinate represents FITC fluorescence intensity indicating the amount of the binding antibody and the abscissa represents antibody concentrations.
(§3) The binding activity of the humanized anti-CLDN6 antibody produced in Example 10 to human CLDN6 and its family molecules, CLDN3, CLDN4, and CLDN9, was evaluated by using a flow cytometry method.

human CLDN4 = biological target: T4, human CLDN4; experiment: as above
Experimental: as §2, §3

binding result (human CLDN6) | binding result (human CLDN9) | binding result (human CLDN3) | binding result (human CLDN4) | Binder
binds | binds | no binding (tested: 100 nM) | no binding (tested: 100 nM) | humanized anti-CLDN6 antibody H1L3 (antibody, human IgG1, kappa, L234A L235A, V domains shown, Human IgG1 LALA heavy chain and human kappa light chain; also called H1L3 antibody; hH1 + hL3) VH: QVQLVQSGAEVKKPGASVKVSCKASGYTFTEYTMHWVRQAPGQGLEWMGGVNPNSGDTSYAQKFQGRVTITADTSTSTAYMELSSLRSEDTAVYYCARPGGYDVGYYAMDYWGQGTLVTVSS VL: DIQMTQSPSSLSASVGDRVTITCRASQDINNYLNWYQQKPGGAVKLLIYFTSRLHSGVPSRFSGSGSGTDYTLTISSLQPEDFATYYCQQGYPLPWTFGGGTKVEIKR
binds | binds | no binding (tested: 100 nM) | no binding (tested: 100 nM) | humanized anti-CLDN6 antibody H1L1 (antibody, human IgG1, kappa, L234A L235A, V domains shown, Human IgG1 LALA heavy chain and human kappa light chain; also called H1L1 antibody; hH1 + hL1) VH: QVQLVQSGAEVKKPGASVKVSCKASGYTFTEYTMHWVRQAPGQGLEWMGGVNPNSGDTSYAQKFQGRVTITADTSTSTAYMELSSLRSEDTAVYYCARPGGYDVGYYAMDYWGQGTLVTVSS VL: DIQMTQSPSSLSASVGDRVTITCRASQDINNYLNWYQQKPGKAPKLLIYFTSRLHSGVPSRFSGSGSGTDYTLTISSLQPEDFATYYCQQGYPLPWTFGQGTKVEIKR
binds | binds | no binding (tested: 100 nM) | no binding (tested: 100 nM) | humanized anti-CLDN6 antibody H3L3 (antibody, human IgG1, kappa, L234A L235A, V domains shown, Human IgG1 LALA heavy chain and human kappa light chain; also called H3L3 antibody; hH3 + hL3) VH: EVQLVQSGAEVKKPGASVKVSCKTSGYTFTEYTMHWVRQAPGQGLEWMGGVNPNSGDTSYAQKFQGRVTLTVDKSTSTAYMELSSLRSEDTAVYYCARPGGYDVGYYAMDYWGQGTLVTVSS VL: DIQMTQSPSSLSASVGDRVTITCRASQDINNYLNWYQQKPGGAVKLLIYFTSRLHSGVPSRFSGSGSGTDYTLTISSLQPEDFATYYCQQGYPLPWTFGGGTKVEIKR
